Holding throughout (test): SPR; SPR (Biacore T100, CM5-neutravidin, 5'-biotin RNA immobilized): 10 mM HEPES pH 7.4, 150 mM NaCl, 3 mM EDTA, 0.005% P20; steady-state fit; temperature not stated
Details in all cases: protein: recombinant; tags: 6xHis (C-terminal); label: 5' biotin; single strand
For orientation: SPR reads the build-up and loss of mass on a sensor chip optically.

One series deals with T1, AePiwi4 PAZ WT (Aedes aegypti, UniProt Q171B3 270-380).
T1 sequence: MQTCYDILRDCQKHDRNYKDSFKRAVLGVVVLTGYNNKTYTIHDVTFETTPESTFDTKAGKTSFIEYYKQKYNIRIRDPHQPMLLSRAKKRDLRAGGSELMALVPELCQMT

A further series has as its target T2, AePiwi4 PAZ T39A (Aedes aegypti, UniProt Q171B3 270-380, T308A).
T2 sequence: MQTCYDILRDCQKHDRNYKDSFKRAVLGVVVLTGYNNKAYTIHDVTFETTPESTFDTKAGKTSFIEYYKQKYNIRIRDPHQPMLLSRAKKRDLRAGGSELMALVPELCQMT

A further series has as its target T3, AePiwi4 PAZ T41A (Aedes aegypti, UniProt Q171B3 270-380, T310A).
T3 sequence: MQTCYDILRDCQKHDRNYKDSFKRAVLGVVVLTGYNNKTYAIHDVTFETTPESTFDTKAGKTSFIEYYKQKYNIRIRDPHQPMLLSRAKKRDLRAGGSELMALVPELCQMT

The target of a further series is T4, AePiwi4 PAZ F55A (Aedes aegypti, UniProt Q171B3 270-380, F324A).
T4 sequence: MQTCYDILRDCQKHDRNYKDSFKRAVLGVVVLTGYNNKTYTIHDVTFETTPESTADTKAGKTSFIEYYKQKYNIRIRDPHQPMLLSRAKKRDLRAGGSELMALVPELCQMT

Another series addresses T5, AePiwi4 PAZ T41R (Aedes aegypti, UniProt Q171B3 270-380, T310R).
T5 sequence: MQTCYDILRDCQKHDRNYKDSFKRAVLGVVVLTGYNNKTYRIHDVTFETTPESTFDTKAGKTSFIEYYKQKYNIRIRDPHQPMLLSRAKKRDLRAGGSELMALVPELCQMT

The target in another series is T6, AePiwi4 PAZ Y40A (Aedes aegypti, UniProt Q171B3 270-380, Y309A).
T6 sequence: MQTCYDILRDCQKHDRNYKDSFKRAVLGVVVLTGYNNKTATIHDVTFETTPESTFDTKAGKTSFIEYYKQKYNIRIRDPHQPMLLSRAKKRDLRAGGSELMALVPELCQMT

Experimental findings from PMC8657434, “Aedes aegypti Piwi4 Structural Features Are Necessary for RNA Binding and Nuclear Localization” are described below.

The term Kd denotes the free concentration of one partner at which half of the binding sites on the other are occupied at equilibrium, for simple one-to-one binding. Consider AUGAGGACAUAAGCCUACGUAGUAUUCC (ssRNA) [3'nm 28 nt scrambled RNA], for which the Kd with AePiwi4 PAZ WT was 2500 ± 100 nM.

With CGAUAAGUGAUCUUUCAGCACUGCAGAA (ssRNA, 3' terminal 2'-O-methyl) [3'm 28 nt PCLV piRNA], the Kd came out at 980 ± 200 nM in the series with AePiwi4 PAZ T39A; 1400 ± 100 nM with AePiwi4 PAZ T41A; 1700 ± 800 nM with AePiwi4 PAZ WT; 570 ± 100 nM in the series with AePiwi4 PAZ T41R; 5500 ± 500 nM with AePiwi4 PAZ Y40A. Besides, the binding result with AePiwi4 PAZ F55A is reported as “no binding”.

For the molecule CGAUAAGUGAUCUUUCAGCACUGCAGAA (ssRNA) [3'nm 28 nt PCLV piRNA], the Kd was found to be 2800 ± 400 nM in the series with AePiwi4 PAZ T39A, 5600 ± 1200 nM in the series with AePiwi4 PAZ T41A, 5000 ± 2200 nM in the series with AePiwi4 PAZ WT and 2000 ± 500 nM with AePiwi4 PAZ T41R. The binding result with AePiwi4 PAZ F55A and with AePiwi4 PAZ Y40A was “no binding” in each case.
